Our source for the Hela cell binding values is patent US20240207429A1, “LINKERS, DRUG LINKERS AND CONJUGATES THEREOF AND METHODS OF USING THE SAME” (ProfoundBio US Co., priority 2021, published 2024).

For this assay, the system named is Hela cells. The assay is described as follows: Flow cytometry binding to Hela cells. It counts as cell-based. The following applies: transfection supernatants, FIG. 6. Here is the method:
The binding activity of the antibodies to Hela cells (ATCC@ CCL-2, provided by COBIOER) and to RPTEC/TERT1 cells (ATCC@ CRL-4031, provided by COBIOER) was tested by flow cytometry using the transfection supernatants. Briefly, target cells were digested with 0.02% EDTA-2Na, centrifuged at 1500 rpm for 3 mins, and resuspended with PBS. After counting, the cells were added to a 1.5 ml centrifuge tube with 1×10^6 cells per tube, centrifuged at 1500 rpm for 5 minutes, and the supernatant was discarded. Then all the operations were carried out on an ice bath. 100 μL of transfection supernatant was added to each 1.5 ml centrifuge tube. Blank cells, blank cells plus secondary antibody, medium and HEK293 supernatant were set up as the controls. The reaction was performed on an ice bath for 1 hour. Then the cells were pelleted and washed twice with PBS. The secondary antibody, goat anti-Human IgG (PE, abcam, ab98596), was diluted (1:200) and added using 100 μL per tube. The reaction was performed on an ice bath for 1 hour in the dark. The cells were pelleted again and washed twice with PBS, resuspended in 300 μL PBS, and FL2 fluorescence readings were measured by cytometry. The results were analyzed by FlowJo™10 software.
Anti-FOLR1 antibody binding to Hela and RPTEC/TERT1 cells was tested by FACS. The study was carried out as described above. […]

B1: F40: Anti-FOLR1 antibody clone: "Clone F40 has a different HCDRs and LCDRs, and with different HFR and LFR" (antibody, V domains shown)
VH: EVQLLESGGGVVQPGRSLRLSCAASGFTFSSYAMHWVRQAPGKGLEWVAVISYDGSNKYYADSVKGRFIISRDNSKNTVYLQMNSLRAEDTAVYYCARPTYVFTYTGSSFDYWGQGTQVTVSS
VL: DIQVTQSPSSLSASLGDTVSITCRASRGLTDSVAWYQQKPGQAPKLLIYAASTLQSGVPSRFGGSGSGSYFTLTITSLQPEDVATYYCQNYKSAPWTFGQGTKVEIK
B1: the Hela cell binding entry is “weakly positive”.
